Measured values from publication doi:10.1101/2023.06.19.545549, “DnaK duplicates and regionally evolves for the increase of proteomic complexity in bacteria” (bioRxiv, 2023).

Molecular target: the molecule itself
Test: SDS-PAGE of the purified protein (monomer and dimer bands); purified MxDnaKs and chimeras on SDS-PAGE without DTT treatment; band compositions confirmed by LC/MS

B1: His6-MxDnaK2, purified recombinant (natural protein, Myxococcus xanthus DK1622, UniProt P95334 1-607, looked up)
chain: MGKVIGIDLGTTNSCVAVMEGGEPVVIPNSEGSRTTPSMVGFTDSGERLVGQIAKRQAITNPENTVFAAKRLIGRKFDSPEGKKAIGVSPFKVASSPNGDAWVEIRGKGYSPPEVSAIVLMKMKQTAEDYLGEQVSEAVITVPAYFNDSQRQATKDAGRIAGLSVLRIINEPTAAALAYGLDKVQDGGTERIAVYDLGGGTFDISILELNAGVFEVKSTNGDTFLGGEDFDQRLIDYLAKRFAESNNGLDLRKDRMALQRLKEAAERAKHELSSAPETEVNLPFITADASGPKHLTETVDRATFEALVTDLIDRTIEPCRIALKDAGIPAQQINQVLLVGGMTRMPRVQQKVKEFFGREPHKGINPDEVVAVGAAIQGGVLKGEVKDVLLLDVTPLSLGVETAGGVFTKIIDKNTTIPCKKSQVFSTAVDNQPLVSVHVLQGEREMAADNKTLARFELVGIPPAPRGVPQIEVSFDIDANGIVHVSAKDLGTGKVQQVRVVSNSGLSEAEIQAMISDAQSHASDDKKKKELAELRNNADGLIYTTEKSLEEYASLLSEKDREEIKADLERLKEVLNTSDAAVLKESFQRLEGSAYRIADAIYTGQAS
notes: MxDnaK2 (MXAN_6671), DnaK of Myxococcus xanthus DK1622; gene amplified from genomic DNA into pET28A; His6-MxDnaK2 printed as 65.3 kDa; source: E. coli BL21 (DE3), purified (Ni-NTA); not shown: His6, N-terminal, kept
stoichiometry N: 2
